What is called inhibition is the percentage by which the read-out fell short of the control. As a reminder, the Km is the substrate concentration at which the rate is half of its maximum. As usually defined, the stoichiometry N is a count of units in the complex or per binding partner.

Three molecules from article PMC6988801, “Characterization of a Dimeric Arginase From Zymomonas mobilis ZM4” (Frontiers in Microbiology, 2019) can be followed below.

One data set addresses T1, zmARG (Zymomonas mobilis, UniProt Q5NQE9).
T1 construct: gene ZMO0432; full length Met1-Lys290; E. coli BL21(DE3) Star, pSKB3, N-terminal His6 with TEV site (25 extra residues); GH left after cleavage; EDTA-dialysed; dimer 64 kDa
The data set can be described thus: arginase activity assay kit, urea colorimetric at […] nm. In kind it is biochemical. The settings on record: read-out: % inhibition at 5 mM.

Substrate in the data set “purified protein”: N=C(N)NCCC[C@H](N)C(=O)O
The data set can be described thus: purified protein. The data set is classed as biochemical, Zymomonas mobilis. The settings on record: Mn-dependent enzyme; metal, pH and temperature of the kinetic run not given.

Data set [1] concerns the molecule itself. The data set can be described thus: AF4-MALS; asymmetrical flow field-flow fractionation with multi-angle light scattering; Eclipse DUALTEC AF4, DAWN Heleos II 18-angle MALS; Zimm model.

Regarding `N[C@@H](CCCCB(O)O)C(=O)O` [ABH, 2(S)-amino-6-boronohexanoic acid], the inhibition at 5000 µM at zmARG is ~95%.

B1: zmARG (Zymomonas mobilis subsp. mobilis ZM4 = ATCC 31821) (protein)
chain: MSSINKPLRLIFPQWQGGDNPPYYLGSQLLAWLSPDPKGAVEEVPVPKPTGEPLQEENGIVGRSILIDQLSEARQLIEKHTPDSLVVLGGDCLVSLAPFSWLLEKYKDKLGILWIDSHPDVQTPKEYKNAHAHVLGELMGNGDSDFTRTVKHPVSPQKIMIAGIHDPLPYEANFISEHKIQTCSPEQVRSGAQPVLDWIKNEKIEYLAIHIDLDVLDPHNFRSVLFAKPGRGQHDFGDVAEGKLNIPDVVKLANQAASISKAVGLTIAEHLPWDALNLKNMLEELPLIGK
notes: full length Met1-Lys290; E. coli BL21(DE3) Star, pSKB3, N-terminal His6 with TEV site (25 extra residues); GH left after cleavage; EDTA-dialysed; dimer 64 kDa
Turning to B1, in the data set “purified protein”, the Km turned out to be 6.8 mM and the kcat amounted to 302 s^–1.

B2: arginase from Zymomonas mobilis ZM4 (zmARG) (enzyme, Zymomonas mobilis subsp. mobilis ZM4)
chain: GHMSSINKPLRLIFPQWQGGDNPPYYLGSQLLAWLSPDPKGAVEEVPVPKPTGEPLQEENGIVGRSILIDQLSEARQLIEKHTPDSLVVLGGDCLVSLAPFSWLLEKYKDKLGILWIDSHPDVQTPKEYKNAHAHVLGELMGNGDSDFTRTVKHPVSPQKIMIAGIHDPLPYEANFISEHKIQTCSPEQVRSGAQPVLDWIKNEKIEYLAIHIDLDVLDPHNFRSVLFAKPGRGQHDFGDVAEGKLNIPDVVKLANQAASISKAVGLTIAEHLPWDALNLKNMLEELPLIGK
notes: two additional amino acids left at the N-terminus after TEV cleavage of the vector-encoded His6 tag; arginase zmARG, product of the ZMO0432 gene of Zymomonas mobilis subsp. mobilis ZM4, Met1-Lys290, amplified from genomic DNA; Two zinc ions are modelled in the active site of each subunit in the crystal; A Se-Met substituted form (made in B834 (DE3)) was used for phasing only; also called ZMO0432 …
As for B2, the “stoichiometry N” value in data set [1] worked out at 2.
